The target of experiment [1] is cross-linked and fluorescent HIV-1 CA tubes co-assembled from CA A14C/E45C and labelled CA K158C (HIV-1). Briefly: TIRF microscopy biosensor, equilibrium binding.
Experiment [2] shares this target. Briefly: TIRF microscopy biosensor.

By Kd is commonly meant the concentration at which binding is half-saturated. A word on the stoichiometry N: it is the number of molecules, sites or subunits per partner or assembly. Consider “cyclophilin A labelled at Cys51 with Alexa Fluor 647 (from UniProt P62937 1-165) (natural protein)”, for which, in experiment [1], the Kd turned out to be 8 µM and the stoichiometry N worked out at 0.5 CypA per CA. On to “full length CPSF6 fused at its N-terminus to GFP (natural protein)”, for which the molar binding ratio (370 nM analyte) (molecules per CA) in experiment [2] is 0.2.

The values are drawn from article doi:10.1101/619841.
